Patent publication US20120045391A1 (NATIONAL RESEARCH COUNCIL CANADA, published 2012)
Positions count from the first letter of the chain named.

T1: IGFBP7 (recombinant; preparation not specified) (UniProt Q16270 27-282)
T1 construct: also called immobilized IGFBP7; recombinant IGFBP7
T1 sequence (looked up): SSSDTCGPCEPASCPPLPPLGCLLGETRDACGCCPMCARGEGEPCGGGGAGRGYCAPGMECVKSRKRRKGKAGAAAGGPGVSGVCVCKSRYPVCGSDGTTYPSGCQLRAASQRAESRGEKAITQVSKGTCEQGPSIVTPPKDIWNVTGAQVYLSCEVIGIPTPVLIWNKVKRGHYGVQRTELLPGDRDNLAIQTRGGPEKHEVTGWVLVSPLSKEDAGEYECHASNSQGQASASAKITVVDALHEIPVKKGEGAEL

T2: recombinant protein IGFBP7 from R&D (UniProt Q16270 27-282)
T2 construct: Bought protein immobilized on the Biacore chip; also called recombinant IGFBP7
T2 sequence (looked up): T1 sequence (looked up)

T3: recombinant custom-synthesized IGFBP7 (UniProt Q16270 27-282)
T3 construct: also called custom-synthesized recombinant IGFBP7
T3 sequence (looked up): T1 sequence (looked up)

B1: sdAb clone 4.6-IGFBP7 (VHH)
VHH: QVKLEESGGGSVQPGGSLRLSCAASGRTFSRLAMGWFRQAPGKERELVAGISRSGDGTHYAYSVKGRFTISRDNAANTVELQMNSLKPEDTAVYFCAAARTAFYYYGNDYNYWGQGTQVTVSS
notes: also called IGFBP7-4.6; not shown: c-Myc detection tag and 5xHis purification tag added at the C-terminus by vector pSJF2
B2: sdAb clone 4.43-IGFBP7 (VHH)
VHH: B1 VHH with S11L, P14A, F29S, S30R, L32Y, L47F
notes: not shown: c-Myc detection tag and 5xHis purification tag added at the C-terminus by vector pSJF2

How the values were obtained:
[1] = molecular target: T1, IGFBP7 (recombinant; preparation not …); assay: SPR, fit to a steady state model
[2] = molecular target: T2, recombinant protein IGFBP7 from R&D; assay: SPR, steady state analysis, IGFBP7 as ligand
[3] = molecular target: T3, recombinant custom-synthesized IGFBP7; assay: SPR, steady state analysis, IGFBP7 as ligand
[4] = molecular target: T2, recombinant protein IGFBP7 from R&D; assay: SPR, steady state analysis as Scatchard plot, IGFBP7 as ligand

Row | Binder | Kd [1] [nM] | Kd [2] [nM] | Kd [3] [nM] | Kd [4] [nM]
1 | B1 | ~1000 | – | – | –
2 | B2 | – | 40 | 30 | 50
